Experimental data reported in PMC8809517, “Cofactor-independent RNA editing by a synthetic S-type PPR protein”.

Assays:
Assay in all cases: high-throughput RNA pulldown from lysate on Ni-NTA beads; HRP: 50 mM Tris pH 8, 150 mM NaCl, 1 mM beta-mercaptoethanol, 50 ug/ml BSA, 3 ug/ml yeast RNA, 0.5% heparin; ITC and FP: Tris pH 8, 200 mM KCl, 5% glycerol; MST: 50 mM Tris pH 8, 200 mM NaCl, 1 mM DTT, BSA, heparin, 0.05% Tween 20
Settings in all cases: tags: N-terminal His-eGFP
[1] = molecular target: T1, GFP-9S library array, motif 4 ND N98T;D124W (synthetic construct, N98T;D124W)
T1 chain: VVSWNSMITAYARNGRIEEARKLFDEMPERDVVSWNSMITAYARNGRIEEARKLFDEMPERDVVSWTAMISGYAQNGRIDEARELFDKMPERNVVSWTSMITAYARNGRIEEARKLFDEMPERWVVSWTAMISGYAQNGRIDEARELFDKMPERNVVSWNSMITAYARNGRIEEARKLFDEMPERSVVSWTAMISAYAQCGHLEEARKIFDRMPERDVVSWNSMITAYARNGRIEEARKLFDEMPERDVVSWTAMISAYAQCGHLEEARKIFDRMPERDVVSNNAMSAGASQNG

[2] = molecular target: T2, GFP-9S library array, motif 4 ND N98P;D124E (synthetic construct, N98P;D124E)
T2 chain: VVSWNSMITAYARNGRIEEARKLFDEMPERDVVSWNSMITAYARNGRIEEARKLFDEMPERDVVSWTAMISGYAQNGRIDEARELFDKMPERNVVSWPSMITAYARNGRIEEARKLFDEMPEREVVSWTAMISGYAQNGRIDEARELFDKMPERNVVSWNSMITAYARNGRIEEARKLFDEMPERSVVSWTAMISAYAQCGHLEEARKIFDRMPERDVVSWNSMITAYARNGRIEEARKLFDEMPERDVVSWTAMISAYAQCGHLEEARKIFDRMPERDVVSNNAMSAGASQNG

[3] = molecular target: T3, GFP-9S library array, motif 4 ND N98G;D124K (synthetic construct, N98G;D124K)
T3 chain: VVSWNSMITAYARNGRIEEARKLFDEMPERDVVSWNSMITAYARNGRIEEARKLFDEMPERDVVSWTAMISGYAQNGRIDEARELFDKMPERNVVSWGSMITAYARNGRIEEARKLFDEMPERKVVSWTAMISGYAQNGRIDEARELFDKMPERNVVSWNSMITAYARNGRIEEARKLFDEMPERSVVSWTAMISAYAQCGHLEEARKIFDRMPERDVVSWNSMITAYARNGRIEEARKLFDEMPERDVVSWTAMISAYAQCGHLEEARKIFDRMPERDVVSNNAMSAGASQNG

[4] = molecular target: T4, GFP-9S library array, motif 4 ND N98R;D124K (synthetic construct, N98R;D124K)
T4 chain: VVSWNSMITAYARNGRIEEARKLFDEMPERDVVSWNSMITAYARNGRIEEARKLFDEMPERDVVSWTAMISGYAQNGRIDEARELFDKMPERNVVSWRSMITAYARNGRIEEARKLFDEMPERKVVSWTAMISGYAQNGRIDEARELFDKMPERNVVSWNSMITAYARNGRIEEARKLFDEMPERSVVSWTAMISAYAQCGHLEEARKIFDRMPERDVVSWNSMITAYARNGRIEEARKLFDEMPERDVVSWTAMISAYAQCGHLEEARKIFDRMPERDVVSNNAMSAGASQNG

[5] = molecular target: T5, GFP-9S library array, motif 4 ND N98E;D124Y (synthetic construct, N98E;D124Y)
T5 chain: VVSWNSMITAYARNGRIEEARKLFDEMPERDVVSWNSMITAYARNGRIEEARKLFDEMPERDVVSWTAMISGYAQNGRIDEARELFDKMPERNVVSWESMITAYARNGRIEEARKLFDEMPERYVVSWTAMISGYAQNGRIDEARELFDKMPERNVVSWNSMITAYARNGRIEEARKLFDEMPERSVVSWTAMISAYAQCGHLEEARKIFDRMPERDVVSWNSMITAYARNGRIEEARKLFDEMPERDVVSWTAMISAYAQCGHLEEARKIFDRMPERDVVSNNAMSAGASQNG

## AUUAUACGUGA (ssRNA) [IR-rpoA-U]
[1]; label: 5' IRDye 800CW
  Kd: 0.15 µM
[2]; label: 5' IRDye 800CW
  Kd: 0.309 µM
[3]; label: 5' IRDye 800CW
  Kd: 0.0597 µM
[4]; label: 5' IRDye 800CW
  Kd: 0.202 µM
[5]; label: 5' IRDye 800CW
  Kd: 0.48 µM

## AUUAGACGUGA (ssRNA) [Cy5-rpoA-G]
[1]; label: 5' Cy5
  Kd: 0.0716 µM
[2]; label: 5' Cy5
  Kd: 0.22 µM
[3]; label: 5' Cy5
  Kd: 0.0654 µM
[4]; label: 5' Cy5
  Kd: 0.161 µM
[5]; label: 5' Cy5
  Kd: 0.187 µM

## AUUAAACGUGA (ssRNA) [IR-rpoA-A]
[1]; label: 5' IRDye 800CW
  Kd: 0.125 µM
[2]; label: 5' IRDye 800CW
  Kd: 0.386 µM
[3]; label: 5' IRDye 800CW
  Kd: 0.0343 µM
[4]; label: 5' IRDye 800CW
  Kd: 0.42 µM
[5]; label: 5' IRDye 800CW
  Kd: 0.45 µM

## AUUACACGUGA (ssRNA) [Cy5-rpoA]
[1]; label: 5' Cy5
  Kd: 0.0815 µM
[2]; label: 5' Cy5
  Kd: 0.204 µM
[3]; label: 5' Cy5
  Kd: 0.103 µM
[4]; label: 5' Cy5
  Kd: 0.136 µM
[5]; label: 5' Cy5
  Kd: 0.231 µM
